Source: US20240002497A1 (Merck Sharp & Dohme, published 2024)

Assays:
huNav1.7α+β1 = target: T1, huNav1.7α+β1 (human, UniProt Q15858 1-1988; Q07699 19-218); assay: binding FACS, HEKa/β1 cells
T1 construct: also called huNav1.7-beta1; HEKa/β1

huNav1.7α = target: T2, huNav1.7α (human, UniProt Q15858 1-1988); assay: binding FACS, HEKa cells
T2 construct: HEK cells expressing the α subunit alone; also called HEKa; HEK huNav1.7α

rhNav1.7α+β1-β2-β3 = target: T3, rhNav1.7α+β1-β2-β3 (rhesus monkey α subunit with human β …); assay: binding FACS, CHO FlpIn cells
T3 construct: P2A cleaves it into α, β1, β2, β3; also called rhNav1.7-beta1-beta2-beta3

rhNav1.7α + β1-β2-β3 = rhNav1.7α + β1-β2-β3 (rhesus monkey); assay: cell-based or functional assay
huNav1.7α + β1 = huNav1.7α + β1 (human); assay: cell-based or functional assay
[1] = target: T4, huNav1.7α + β1 (human Nav1.7α co-expressed with Navβ1) (human, UniProt Q15858 1-1988; Q07699 19-218); assay: binding FACS, HEKa/β1 cells
T4 construct: also called HEK293 human Nav1.7α + β1; HEKa/β1 Nav1.7α

huNav157 chimera 14 = target: T5, huNav157 chimera 14 (human); assay: binding FACS, HEK FlpIn cells
T5 construct: Chimera without β subunits; also called Nav157ch14

[2] = target: T6, huNav157 chimera 14 + β1-β2-β3 (human); assay: binding FACS, HEK FlpIn cells
T6 construct: Chimera of huNav1.7α (extracellular loops and transmembrane helices) and huNav1.5α (intracellular loops); also called Nav157ch14-β1-β2-β3; huNav157 chimera 14-beta1-beta2-beta3

[3] = target: T7, huNav1.7α (human Nav1.7 alpha subunit, expressed without β subunits) (human, UniProt Q15858 1-1988); assay: binding FACS, HEKa cells
T7 construct: also called HEK293 human Nav1.7α; HEKa Nav1.7α

[4] = target: huNav1.7α + β1 on HEK cells (human, UniProt Q15858 1-1988; Q07699 19-218); assay: binding FACS, HEK cells (HEKa/b1)

B1: F010300796 (VHH)
VHH: EVQLVESGGGLVQPGGSLRLSCAASGPVFNINRMAWYRRAPGKQRELVAYSTPGGDTNYADSVKGRFTISRDNAKRVYLQMNSLTPEDTAVYYCNALLQPSIYDISRTYWGQGTLVTVSS
notes: vs F0103275B05: S27P, I28V, S33R, S50Y, N53P, S56D
- EC50 (huNav1.7α+β1): 38 nM
- EC50 (huNav1.7α): 5.8 nM
- EC50 (rhNav1.7α+β1-β2-β3): 44 nM

B2: F010301000 (VHH)
VHH: EVQLVESGGGLVQPGGSLRLSCAASGPVFNINRMAWYRRAPGKQRELVAYSTPGGDTNYADSVKGRFTISRDNAKRVYLQMNSLTPEDTAVYYCNALLQPSIYDISRIYWGQGTLVTVSS
notes: vs F0103275B05: S27P, I28V, S33R, S50Y, N53P, S56D, T101I
- EC50 (huNav1.7α+β1): 60 nM
- EC50 (huNav1.7α): 8.5 nM
- EC50 (rhNav1.7α+β1-β2-β3): 40 nM

B3: F010301459 (VHH)
VHH: EVQLVESGGGLVQPGGSLRLSCAASGPVFNINRMAWYRRAPGKQRELVASSTPGGDTNYADSVKGRFTISRDNAKRVYLQMNSLTPEDTAVYYCRALLQPSIYDISRTYWGQGTLVTVSS
notes: vs F0103275B05: S27P, I28V, S33R, N53P, S56D, N93R
- EC50 (huNav1.7α+β1): 18 nM
- EC50 (huNav1.7α): 22 nM
- EC50 (rhNav1.7α+β1-β2-β3): 23 nM

B4: F010301460 (VHH)
VHH: EVQLVESGGGLVQPGGSLRLSCAASGPVFNINRMAWYRRAPGKQRELVAYSTPGGSTNYADSVKGRFTISRDNAKRVYLQMNSLTPEDTAVYYCRALLQPSIYDISRTYWGQGTLVTVSS
notes: vs F0103275B05: S27P, I28V, S33R, S50Y, N53P, N93R
- EC50 (huNav1.7α+β1): 26 nM
- EC50 (huNav1.7α): 15 nM
- EC50 (rhNav1.7α+β1-β2-β3): 32 nM

B5: F010301461 (VHH)
VHH: EVQLVESGGGLVQPGGSLRLSCAASGSIFNINRMAWYRRAPGKQRELVAYSTNGGDTNYADSVKGRFTISRDNAKRVYLQMNSLTPEDTAVYYCRALLQPSIYDISRTYWGQGTLVTVSS
notes: also called F0103275B05(S33R, S50Y, S56D, N93R)
- EC50 (huNav1.7α+β1): 21 nM
- EC50 (huNav1.7α): 28 nM
- EC50 (rhNav1.7α+β1-β2-β3): 24 nM

B6: F010301462 (VHH)
VHH: EVQLVESGGGLVQPGGSLRLSCAASGPVFNINRMAWYRRAPGKQRELVAYSTPGGDTNYADSVKGRFTISRDNAKRVYLQMNSLTPEDTAVYYCRALLQPSIYDISRTYWGQGTLVTVSS
notes: vs F0103275B05: S27P, I28V, S33R, S50Y, N53P, S56D, N93R
- EC50 (huNav1.7α+β1): 22 nM
- EC50 (huNav1.7α): 35 nM
- EC50 (rhNav1.7α+β1-β2-β3): 23 nM

B7: F010302383 (VHH)
VHH: EVQLVESGGGVVQPGGSLRLSCAASGPVFNINRMAWYRQAPGKQRELVAYVTPTGDISYADSVKGRFTISRGGSKRVYLQMNSLRPEDTALYYCRALLQPSSYSGTRTYWGQGTLVTVSS
- Qpatch IC50 (rhNav1.7α + β1-β2-β3): 3 nM
- Qpatch IC50 (huNav1.7α + β1): 22 nM

B8: F010300880 (VHH)
VHH: EVQLVESGGGLVQPGGSLRLSCAASGPVFNINRMAWYRRAPGKQRELVASSTPGGDTNYADSVKGRFTISRDNAKRVYLQMNSLTPEDTAVYYCRWLLQPSIYDISRTYWGQGTLVTVSS
- Qpatch IC50 (rhNav1.7α + β1-β2-β3): 122 nM
- Qpatch IC50 (huNav1.7α + β1): 27 nM

B9: F010300900 (VHH)
VHH: EVQLVESGGGLVQPGGSLRLSCAASGPVFNINRMAWYRRAPGKQRELVASSTPGGDTNYADSVKGRFTISRDNAKRVYLQMNSLTPEDTAVYYCRWLLQPSIYDISRIYWGQGTLVTVSS
- Qpatch IC50 (rhNav1.7α + β1-β2-β3): 36 nM
- Qpatch IC50 (huNav1.7α + β1): 196 nM

B10: F010300948 (VHH)
VHH: EVQLVESGGGLVQPGGSLRLSCAASGPVFNINRMAWYRRAPGKQRELVASSTPGGSTNYADSVKGRFTISRDNAKRVYLQMNSLTPEDTAVYYCRWLLQPSIYDISRIYWGQGTLVTVSS
- Qpatch IC50 (rhNav1.7α + β1-β2-β3): 58 nM
- Qpatch IC50 (huNav1.7α + β1): 315 nM

B11: F010300990 (VHH)
VHH: EVQLVESGGGLVQPGGSLRLSCAASGPVFNINRMAWYRRAPGKQRELVAYSTPGGSTNYADSVKGRFTISRDNAKRVYLQMNSLTPEDTAVYYCNALLQPSIYDISRIYWGQGTLVTVSS
- Qpatch IC50 (rhNav1.7α + β1-β2-β3): 101 nM
- Qpatch IC50 (huNav1.7α + β1): 249 nM

B12: F010300477 (VHH)
VHH: EVQLVESGGGLVQPGGSLRLSCAASGSIFNINSMAWYRRAPGKQRELVASSTNGGSTNYADSVKGRFTISRDNAKRVYLQMNSLTPEDTAVYYCNWLLQPSIYDISRTYWGQGTLVTVSS
- Qpatch IC50 (rhNav1.7α + β1-β2-β3): 1190 nM
- Qpatch IC50 (huNav1.7α + β1): 96 nM

B13: F010300631 (VHH)
VHH: EVQLVESGGGLVQPGGSLRLSCAASGPVFNINSMAWYRRAPGKQRELVAYSTPGGSTNYADSVKGRFTISRDNAKRVYLQMNSLTPEDTAVYYCRALLQPSIYDISRTYWGQGTLVTVSS
- Qpatch IC50 (rhNav1.7α + β1-β2-β3): 173 nM
- Qpatch IC50 (huNav1.7α + β1): 73 nM

B14: F010300684 (VHH)
VHH: EVQLVESGGGLVQPGGSLRLSCAASGPVFNWNSMAWYRRAPGKQRELVASSTPGGSTNYADSVKGRFTISRDNAKRVYLQMNSLTPEDTAVYYCRALLQPSIYDISRIYWGQGTLVTVSS
- Qpatch IC50 (rhNav1.7α + β1-β2-β3): 212 nM
- Qpatch IC50 (huNav1.7α + β1): 202 nM

B15: F010301643 (VHH)
VHH: EVQLVESGGGVVQPGGSLRLSCAASGRILRIGYMRWHRQGAGKQREFVARITDDSATDYADSVKGRFTISRDNAKNTVYLQMNSLRPEDTALYYCEALVTASVRGGSIHSGTYWGQGTLVTVSS
notes: also called F0103387G05(L11V, A14P, D23A, N82bS, N83R, V89L, R105Q)
- EC50 [1]: 3.4 nM
- Bmax (huNav157 chimera 14): 100%
- EC50 (huNav157 chimera 14): 3.7 nM
- EC50 [2]: 3.6 nM
- Bmax [3]: 100%
- EC50 [3]: 4.1 nM

B16: F010301644 (VHH)
VHH: EVQLVESGGGVVQPGGSLRLSCDASGRILRIGYMRWYRQGAGKQREFVARITDDSATDYADSVKGRFTISRDNAKNTVYLQMNSLRPEDTALYYCEALVTASVRGGSIHSGTYWGQGTLVTVSS
notes: also called F0103387G05(L11V, A14P, H37Y, N82bS, N83R, V89L, R105Q)
- EC50 [1]: 5 nM
- Bmax (huNav157 chimera 14): 100%
- EC50 (huNav157 chimera 14): 4.4 nM
- EC50 [2]: 4.9 nM
- Bmax [3]: 100%
- EC50 [3]: 5.7 nM

B17: F010301645 (VHH)
VHH: EVQLVESGGGVVQPGGSLRLSCDASGRILRIGYMRWHRQAAGKQREFVARITDDSATDYADSVKGRFTISRDNAKNTVYLQMNSLRPEDTALYYCEALVTASVRGGSIHSGTYWGQGTLVTVSS
notes: also called F0103387G05(L11V, A14P, G40A, N82bS, N83R, V89L, R105Q)
- EC50 [1]: 4.2 nM
- Bmax (huNav157 chimera 14): 100%
- EC50 (huNav157 chimera 14): 3.9 nM
- EC50 [2]: 4.6 nM
- Bmax [3]: 100%
- EC50 [3]: 4.7 nM

B18: F010301646 (VHH)
VHH: EVQLVESGGGVVQPGGSLRLSCDASGRILRIGYMRWHRQGPGKQREFVARITDDSATDYADSVKGRFTISRDNAKNTVYLQMNSLRPEDTALYYCEALVTASVRGGSIHSGTYWGQGTLVTVSS
notes: also called F0103387G05(L11V, A14P, A41P, N82bS, N83R, V89L, R105Q)
- EC50 [1]: 4.1 nM
- Bmax (huNav157 chimera 14): 100%
- EC50 (huNav157 chimera 14): 3.1 nM
- EC50 [2]: 4.2 nM
- Bmax [3]: 100%
- EC50 [3]: 4.4 nM

B19: F010301649 (VHH)
VHH: EVQLVESGGGVVQPGGSLRLSCDASGRILRIGYMRWHRQGAGKQREFVARITDDSATDYADSVKGRFTISRDNAKNTVYLQMNSLRPEDTALYYCEALVTASVRGGSIHSGTYWGQGTLVTVSS
notes: also called F0103387G05(L11V, A14P, N82bS, N83R, V89L, R105Q)
- EC50 [1]: 4.1 nM
- Bmax (huNav157 chimera 14): 100%
- EC50 (huNav157 chimera 14): 3.4 nM
- EC50 [2]: 4.2 nM
- Bmax [3]: 100%
- EC50 [3]: 5.3 nM

B20: F010301639 (VHH)
VHH: EVQLVESGGGVVQPGGSLRLSCAASGSIFNINSMAWYRQAPGKQRELVASSTNGGSTNYADSVKGRFTISRDNAKRTVYLQMNSLRPEDTALYYCNALLQPSIYDISRTYWGQGTLVTVSS
notes: also called F0103275B05(R76_V78insT)(L11V, R39Q, T83R, V89L)
- EC50 [4]: 94 nM

B21: F010301640 (VHH)
VHH: EVQLVESGGGVVQPGGSLRLSCAASGSIFNINSMAWYRRAPGKQRELVASSTNGGSTNYADSVKGRFTISRDNAKRTVYLQMNSLRPEDTALYYCNALLQPSIYDISRTYWGQGTLVTVSS
notes: also called F0103275B05(R76_V78insT)(L11V, T83R, V89L)
- EC50 [4]: 65 nM
